The record followed here is US20230183337A1 (UNIVERSIT D AIXMARSEILLE, published 2023).

The target in experiment [1] is T1, human Nectin-4 (cell surface nectin-4 on SUM190 tumor cells; nectin-4 in breast cancer tissues) (UniProt Q96NY8 32-510).
T1 chain: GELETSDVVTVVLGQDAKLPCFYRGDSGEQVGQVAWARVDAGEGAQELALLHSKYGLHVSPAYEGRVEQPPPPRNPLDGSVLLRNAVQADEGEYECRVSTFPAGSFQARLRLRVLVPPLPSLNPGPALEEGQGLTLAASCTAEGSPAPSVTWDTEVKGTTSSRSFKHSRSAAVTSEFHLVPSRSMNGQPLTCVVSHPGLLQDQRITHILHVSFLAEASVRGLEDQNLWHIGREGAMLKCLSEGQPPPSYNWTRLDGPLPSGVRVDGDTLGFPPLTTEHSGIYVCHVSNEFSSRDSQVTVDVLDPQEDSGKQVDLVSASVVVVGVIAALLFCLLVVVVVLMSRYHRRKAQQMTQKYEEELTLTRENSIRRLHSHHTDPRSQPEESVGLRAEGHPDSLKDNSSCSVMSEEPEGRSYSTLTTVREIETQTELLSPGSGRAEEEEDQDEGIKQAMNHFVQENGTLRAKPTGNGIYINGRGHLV
Briefly: FACS. A general note: A flow cytometer gives signals particle by particle.

In experiment [2] the target is T2, human Nectin-4 (cell surface nectin-4 on SUM190 tumor cells; nectin-4 in breast cancer tissues) (human, UniProt Q96NY8 32-510).
T2 construct: Endogenous nectin-4 of the human SUM190 breast cancer cell line (FACS) and of patient FFPE tumour tissue (IHC); also called PVRL4
T2 sequence: T1 chain
Briefly: FACS on SUM190 cells, serial dilutions of mAb.

The next experiment deals with T3, Nectin-4 (SUM190 cells) (UniProt Q96NY8 32-510).
T3 chain: T1 chain
Put plainly: FACS.

B1: murine monoclonal antibody 5A12.2 (hybridoma CNCM I-5407) (antibody, V domains shown)
VH: QIQLQQSGAELVKPGASVTLSCKTSGFTFNSMYISWLKQKPGQSLEWIAWIYAGTGGTRFNQKFTGKVQLTVDTSSSTAYMQFSSLTTDDSAIYYCAIRSGFVPMDYWGQGTSVTVSS
VL: SIVMTQTPKFLLVSAGDRVTITCKASQSVSNDVAWYQQKPGQSPKLLIYYASNRYTGVPDRFTGSGYGTDFTFTISTVQAEDLAVYFCQQDYSSPWTFGGGTKLEIK
notes: Whole murine monoclonal antibody from a hybridoma with a kappa light chain; also called mAb 5A12.2; 5A12.2 mAb
B1 gave an EC50 in experiment [1] of 0.018 µg/mL. Also, the binding result in experiment [2] was “binds”.

B2: 14A5 (antibody, V domains shown)
VH: EVLLQQSGPELVKPGASVKIPCKASGYTFTDYTMDWVKQSHGKSLEWIGDINPNNDVTMYNEKFKGRATLTVDKSSSTAYMEVRSLTSEDTAVYYCVRGRGFAYWGQGTLVTVSA
VL: DIVLTQSPASLIVSLGQRATISCRASQSVSTSSNSYMHWYQQKPGQPPKLLIRFASNLESGVPARFSGSGSGTYFTLNIHPVEEEDSATYYCQHSWEIPYTFGGGTKLEIK
B2 came in with an EC50 with Nectin-4 (SUM190 cells) of 0.034 µg/mL.

B3: N41 (antibody, V domains shown)
VH: QVQLKQSGPGLVQPSQSLSITCTVSGFSLTNYGVHWVRQSPGKGLEWLGVIWSGGSTDYNAAFISRLSISKDTSKSQVFFKMNSLQADDTAIYYCARELIHAMDNWGQGTSVTVSS
VL: DIQMTQSPASLSVSVGETVTITCRASENIYSNLAWYQQKQGNSPQLLVFAATNLADGVPSRFSGSGSGTQYSLKINSLQSEDFGTYYCQHFWGTPTFGGGTKLEIK
Molecule B3 returned an EC50 in the experiment with Nectin-4 (SUM190 cells) of 0.052 µg/mL.

One may read the EC50 as the concentration at which the effect is half-maximal. High values mean weaker potency, low ones greater potency.
